Laboratory results published in patent US20230416345A1, “NEW TYPE II COLLAGEN BINDING PROTEINS” (Navigo Proteins GmbH, priority 2020, published 2023).

Assays:
[1] = biological target: T1, recombinant human collagen type II (h Col II) (Homo sapiens, UniProt P02458); test: KD-determination by ELISA vs human collagen type II; format: binding; conditions: type II collagen; tetramers: of different species
T1 construct: purchased Chondrex CHX-20051
Method: (§1) High binding plates (Greiner, 781061) were immobilized with 2.5 μg/ml recombinant human collagen type II (h Col II, Chondrex, CHX-20051), rabbit collagen type II (rbCol II, prepared from rabbit eyes), porcine collagen type II (p Col II, prepared from porcine eyes), human collagen type I, (h Col I, Sigma, C5483-1MG), human collagen type V (h Col V, Abcam, ab7537), human collagen type III (h Col Ill, Abcam, ab7535) and 67B89 (domain of fibronectin, produced in E. coli) respectively over night at 4° C. ELISA-plates were washed 3 times with PBST (PBS+ 0.1% Tween) and blocked with 3% BSA/0.5% Tween/PBS 2 h at RT. After washing with PBST, dilution series of 1.1 μM to 7×10^−4 nM of dimers (CID 211999, CID 212000), dilution series of 100 nM to 7×10^−6 nM of tetramers (CID 212001 and CID 212704) and dilution series of 10 μM to 2 nM of dimer (CID 212705) were incubated on ELISA-plates 1 h at rt. Plates were washed with PBST and incubated with biotinylated anti-StrepTag-ab (Antikörper-online, ABIN1573895) with a dilution of 1:10.000 for 1 h at rt. The binding was visualized with a-rabbit-IgG-HRP (Sigma, A9169) with a dilution of 1:10.000 and as substrate TMB Plus von KEM EN TEC Diagnostic, Kat-Nr. 4395.

[2] = biological target: T2, human collagen type I (h Col I) (Homo sapiens, UniProt P02452+P08123); test: ELISA specificity vs human collagen type I; format: binding
T2 construct: purchased Sigma C5483-1MG
Method: as §1

[3] = biological target: T3, human collagen type V (h Col V) (Homo sapiens, UniProt P05997+P20908); test: ELISA specificity vs human collagen type V; format: binding
T3 construct: purchased Abcam ab7537
T3 sequence (P20908 38-1605 limits assumed): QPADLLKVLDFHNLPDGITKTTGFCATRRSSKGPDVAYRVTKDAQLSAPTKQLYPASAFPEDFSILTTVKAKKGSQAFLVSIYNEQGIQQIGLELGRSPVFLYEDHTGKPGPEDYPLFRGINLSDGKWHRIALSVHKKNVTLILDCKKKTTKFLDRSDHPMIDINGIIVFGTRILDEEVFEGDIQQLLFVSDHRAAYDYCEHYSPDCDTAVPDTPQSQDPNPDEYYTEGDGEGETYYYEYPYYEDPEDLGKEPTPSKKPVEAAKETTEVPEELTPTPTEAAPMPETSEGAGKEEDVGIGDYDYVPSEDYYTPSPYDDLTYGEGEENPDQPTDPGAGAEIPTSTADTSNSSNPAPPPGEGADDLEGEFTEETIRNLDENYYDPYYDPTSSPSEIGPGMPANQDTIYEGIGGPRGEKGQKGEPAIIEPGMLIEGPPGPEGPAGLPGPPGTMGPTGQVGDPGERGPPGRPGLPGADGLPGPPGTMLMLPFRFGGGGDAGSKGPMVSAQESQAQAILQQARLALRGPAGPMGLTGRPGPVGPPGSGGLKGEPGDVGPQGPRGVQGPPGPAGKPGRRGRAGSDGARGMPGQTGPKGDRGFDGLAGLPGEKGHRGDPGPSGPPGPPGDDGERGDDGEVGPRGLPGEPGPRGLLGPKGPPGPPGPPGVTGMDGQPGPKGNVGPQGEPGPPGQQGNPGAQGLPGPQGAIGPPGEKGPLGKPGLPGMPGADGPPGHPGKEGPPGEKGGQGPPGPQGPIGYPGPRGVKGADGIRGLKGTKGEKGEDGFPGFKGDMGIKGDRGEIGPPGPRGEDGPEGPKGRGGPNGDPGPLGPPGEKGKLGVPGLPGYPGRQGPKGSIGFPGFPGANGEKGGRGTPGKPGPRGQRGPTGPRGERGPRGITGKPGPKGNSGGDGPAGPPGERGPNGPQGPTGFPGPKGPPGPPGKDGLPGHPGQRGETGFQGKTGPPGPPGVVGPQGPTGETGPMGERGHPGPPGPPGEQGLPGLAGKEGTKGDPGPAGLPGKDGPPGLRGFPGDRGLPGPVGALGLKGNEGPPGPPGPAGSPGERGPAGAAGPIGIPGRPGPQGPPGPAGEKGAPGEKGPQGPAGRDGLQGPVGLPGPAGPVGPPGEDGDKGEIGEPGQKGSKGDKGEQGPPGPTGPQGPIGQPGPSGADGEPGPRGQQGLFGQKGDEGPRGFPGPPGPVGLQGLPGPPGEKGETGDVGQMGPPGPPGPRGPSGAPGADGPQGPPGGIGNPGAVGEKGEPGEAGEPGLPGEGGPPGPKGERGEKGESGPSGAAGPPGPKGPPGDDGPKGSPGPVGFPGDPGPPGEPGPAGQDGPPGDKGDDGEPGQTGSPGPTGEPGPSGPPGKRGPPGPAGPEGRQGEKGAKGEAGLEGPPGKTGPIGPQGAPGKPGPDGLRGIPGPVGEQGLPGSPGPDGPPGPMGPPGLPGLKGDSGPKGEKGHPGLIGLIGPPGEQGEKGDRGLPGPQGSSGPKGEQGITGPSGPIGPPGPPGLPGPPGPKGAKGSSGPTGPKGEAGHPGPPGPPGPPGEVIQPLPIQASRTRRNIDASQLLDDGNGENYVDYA
T3 sequence (P05997 27-1229 limits assumed): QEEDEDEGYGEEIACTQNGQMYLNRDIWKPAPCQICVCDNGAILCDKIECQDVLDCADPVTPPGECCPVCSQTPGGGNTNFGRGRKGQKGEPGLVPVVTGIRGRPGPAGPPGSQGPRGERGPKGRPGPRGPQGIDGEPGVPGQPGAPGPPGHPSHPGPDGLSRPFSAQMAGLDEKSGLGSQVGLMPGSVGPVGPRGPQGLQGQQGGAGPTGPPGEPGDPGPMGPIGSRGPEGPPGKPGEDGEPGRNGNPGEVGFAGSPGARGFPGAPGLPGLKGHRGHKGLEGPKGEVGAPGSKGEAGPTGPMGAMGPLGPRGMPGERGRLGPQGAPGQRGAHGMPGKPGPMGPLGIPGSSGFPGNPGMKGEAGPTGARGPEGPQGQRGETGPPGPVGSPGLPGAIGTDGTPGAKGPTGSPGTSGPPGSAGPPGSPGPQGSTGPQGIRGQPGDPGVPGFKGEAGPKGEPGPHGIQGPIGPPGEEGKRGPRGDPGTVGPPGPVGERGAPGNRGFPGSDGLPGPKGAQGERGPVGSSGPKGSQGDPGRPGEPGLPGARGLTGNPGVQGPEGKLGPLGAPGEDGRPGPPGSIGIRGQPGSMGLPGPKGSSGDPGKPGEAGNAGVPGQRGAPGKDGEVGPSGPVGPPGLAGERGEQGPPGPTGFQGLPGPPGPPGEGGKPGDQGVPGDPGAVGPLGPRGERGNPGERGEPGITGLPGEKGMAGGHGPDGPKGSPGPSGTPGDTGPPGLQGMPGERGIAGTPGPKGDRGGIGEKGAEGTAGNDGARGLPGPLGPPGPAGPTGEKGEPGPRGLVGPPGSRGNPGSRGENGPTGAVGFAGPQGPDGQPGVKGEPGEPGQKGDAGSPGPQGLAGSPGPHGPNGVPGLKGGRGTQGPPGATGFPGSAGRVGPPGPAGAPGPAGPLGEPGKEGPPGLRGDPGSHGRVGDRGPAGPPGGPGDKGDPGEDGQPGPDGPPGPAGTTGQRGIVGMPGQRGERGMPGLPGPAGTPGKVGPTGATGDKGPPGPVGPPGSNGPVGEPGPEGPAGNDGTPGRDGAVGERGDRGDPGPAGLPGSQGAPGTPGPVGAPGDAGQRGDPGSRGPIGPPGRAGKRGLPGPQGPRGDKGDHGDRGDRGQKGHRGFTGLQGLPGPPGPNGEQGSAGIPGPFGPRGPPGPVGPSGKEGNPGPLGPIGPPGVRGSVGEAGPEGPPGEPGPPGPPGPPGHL
Method: as §1

[4] = biological target: T4, 67B89 (domain of fibronectin) (Homo sapiens, UniProt P02751); test: ELISA specificity vs 67B89; format: binding
T4 construct: unrelated fibronectin domain EDB (67B89) could be observed; made in house; host or cells: E. coli
T4 sequence (P02751 1089-1540 limits assumed): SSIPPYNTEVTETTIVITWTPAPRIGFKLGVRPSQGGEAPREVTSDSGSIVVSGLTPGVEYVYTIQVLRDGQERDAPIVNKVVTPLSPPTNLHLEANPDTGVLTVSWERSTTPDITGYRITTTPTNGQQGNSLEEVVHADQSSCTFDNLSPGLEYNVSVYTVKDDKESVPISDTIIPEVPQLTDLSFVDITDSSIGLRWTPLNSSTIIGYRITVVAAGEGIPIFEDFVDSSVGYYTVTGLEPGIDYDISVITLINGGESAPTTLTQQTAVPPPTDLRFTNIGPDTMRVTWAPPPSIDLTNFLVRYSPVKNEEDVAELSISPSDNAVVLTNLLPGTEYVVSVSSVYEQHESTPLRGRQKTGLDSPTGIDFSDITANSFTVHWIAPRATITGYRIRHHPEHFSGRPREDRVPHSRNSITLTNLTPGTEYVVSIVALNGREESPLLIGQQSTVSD
Method: as §1

[5] = test system: pig eye sections; test: Immunohistochemistry staining on pig eye sections; conditions: formalin-fixed paraffin-embedded pig eyes; 5 μM or 500 nM protein, 45 min
Method: Sections of formalin-fixed paraffin-embedded pig eyes were deparaffinated with xylol and rehydrated with a descending concentration series of ethanol. For antigen retrieval slices were incubated in TE-buffer, pH 9.0 for 5 min. at 110° C. After blocking of endogenous peroxidases with peroxidase blocking solution (Novolink Polymer™ Detection System, Leica, RE7140-K) slices were incubated with 5 μM or 500 nM of CID 211999 (dimer), CID 212000 (dimer), CID 212001 (tetramer) for 45 min at rt. Subsequently binding of proteins was detected with rabbit-anti-StrepTag-antibody (Genscript, A00026) at a dilution of 1:500 and Novolink Polymer™ Detection System. Anti-Collagen Type II antibody (Abcam, #ab34712) at a dilution of 1:10 served as positive control. Tissue slices were incubated with antibodies for 30 min. Washing steps were performed with TBS pH 7.6. For visualization, AEC-staining (Dako, K3461) was used and after washing with water, nuclei were stained with Mayers Hamalum solution (Merck, 1.09249.0500). Results see FIG. 5.

[6] = Soluble expression in Escherichia coli BL21(DE3); format: physicochemical; conditions: expression in E. coli BL21(DE3)
Method: Variants with affinity tag were expressed in Escherichia coli BL21(DE3) using a low copy plasmid system under regulation of a T7 promoter. Proteins were produced in soluble form after induction by lactose included in the medium (autoinduction medium). BL21 (DE3) competent cells were transformed with the expression plasmid, spread onto selective agar plates (kanamycin) and incubated overnight at 37° C. Precultures were inoculated from single colony in 3 ml 2×YT medium supplemented with 50 μg/ml kanamycin and cultured for 6 hours at 37° C. at 200 rpm in a conventional orbital shaker in culture tubes. […] Cultures were transferred to an orbital shaker and incubated at 30° C. and 200 rpm. Recombinant protein expression was induced by metabolizing glucose and subsequently allowing lactose to enter the cells. Cells were grown overnight for approx. 17 hours to reach a final OD600 of about 2-4. Before the harvest, the OD600 was measured, samples adjusted to 0.6/OD600 were withdrawn, pelleted and frozen at −20° C. To collect biomass cells were centrifuged at 12000×g for 15 min at 22° C. Pellets were weighed (wet weight). Cells were stored at −20° C. before processing.
Proteins with affinity tag were purified by affinity chromatography and size exclusion. After affinity chromatography purification using Strep-Tactin Superflow high capacity cartridges (IBA Lifesciences) a size exclusion chromatography (SEC) was performed using an Äkta system and a Superdex™ 200 HiLoad 16/600 column (Cytiva). Fused variants with Aflibercept were purified via MabSelect SuRe (Cytiva) affinity chromatography followed by a size exclusion chromatography (SEC) using an Äkta system and a Superdex™ 200 HiLoad 16/600 column (Cytiva). All chromatography processing steps were carried out on AKTA systems using matrices from Cytiva. Homogenous species of all purified ligands were obtained; no aggregation was detected. Following SOS-PAGE analysis positive fractions were pooled and their protein concentrations were measured. Further analysis included SOS-PAGE, SE-HPLC and RP-HPLC. Protein concentrations were determined by absorbance measurement at 280 nm using the molar absorbent coefficient. Reversed phase chromatography (RP-HPLC) was performed using a Dionex HPLC system and a PLRP-S (5 μm, 300 Å) column (Agilent). Analytic size exclusion chromatography (SE-HPLC) was performed using a Dionex HPLC system and a Superdex200 increase 5/150 GL (Cytiva). Binding of Collagen II was evaluated by SPR measurements using a Biacore 3000 system. Purified Collagen II was obtained from Chondrex.inc and VEGF-165 was obtained from Millipore. Targets were immobilized on a CM5-Sensor via NHS/EDC chemistry (immobilization level ˜1000 RU). Binding molecules were injected at different concentration and affinity was calculated by langmuir 1:1 binding model.

T1 sequence (P02458 182-1241): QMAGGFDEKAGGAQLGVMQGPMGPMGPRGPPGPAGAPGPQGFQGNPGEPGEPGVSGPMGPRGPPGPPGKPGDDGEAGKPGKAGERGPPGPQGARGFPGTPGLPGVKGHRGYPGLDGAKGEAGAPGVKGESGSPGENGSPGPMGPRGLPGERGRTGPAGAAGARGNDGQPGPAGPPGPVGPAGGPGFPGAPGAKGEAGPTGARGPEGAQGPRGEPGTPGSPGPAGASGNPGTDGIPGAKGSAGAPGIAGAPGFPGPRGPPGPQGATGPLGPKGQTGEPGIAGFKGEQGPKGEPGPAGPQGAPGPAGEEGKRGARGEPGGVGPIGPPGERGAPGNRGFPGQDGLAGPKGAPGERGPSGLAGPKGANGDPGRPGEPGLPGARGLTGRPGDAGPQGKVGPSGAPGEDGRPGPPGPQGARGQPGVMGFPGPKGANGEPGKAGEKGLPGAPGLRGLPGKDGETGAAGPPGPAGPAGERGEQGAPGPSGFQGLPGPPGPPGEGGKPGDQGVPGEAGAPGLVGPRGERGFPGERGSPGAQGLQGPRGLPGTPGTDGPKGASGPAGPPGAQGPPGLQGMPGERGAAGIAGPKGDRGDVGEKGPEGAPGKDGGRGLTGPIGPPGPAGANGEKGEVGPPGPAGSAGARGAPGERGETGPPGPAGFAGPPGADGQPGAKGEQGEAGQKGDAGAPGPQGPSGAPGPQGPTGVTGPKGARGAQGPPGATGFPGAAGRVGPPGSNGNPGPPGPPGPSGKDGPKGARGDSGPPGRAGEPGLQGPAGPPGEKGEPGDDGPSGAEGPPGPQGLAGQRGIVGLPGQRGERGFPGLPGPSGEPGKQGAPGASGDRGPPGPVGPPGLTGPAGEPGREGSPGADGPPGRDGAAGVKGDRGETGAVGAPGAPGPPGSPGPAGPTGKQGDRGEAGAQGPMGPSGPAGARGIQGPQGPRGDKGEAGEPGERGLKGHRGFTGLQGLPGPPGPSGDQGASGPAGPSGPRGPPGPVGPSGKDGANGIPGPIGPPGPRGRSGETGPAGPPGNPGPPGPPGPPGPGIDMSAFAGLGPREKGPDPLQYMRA

binding affinity (KD) to type II collagen by ELISA, in words [1]: 1-2-digit nM | binding to type I collagen (ELISA) [2]: No unspecific binding | binding to type V collagen (ELISA) [3]: No unspecific binding | binding to domain of fibronectin (67B89) (ELISA) [4]: No unspecific binding
B1: CID 212000: dimer of SEQ ID NO: 2 (dimer with linker between the monomers) (protein)
chain: IAAKFDEAQSAADSEILHLPNLTEQQRHYFRRWLSDDPSVSTHILTQAQHLNDDQAPKGGGGSGGGGSGGGGSGGGGSIAAKFDEAQSAADSEILHLPNLTEQQRHYFRRWLSDDPSVSTHILTQAQHLNDDQAPKSAWSHPQFEK
modifications: Col2 binding protein (dimer of 211261) (CID212000)
IHC staining of pig eye sections [5]: staining of retina, inner limiting membrane (arrow) and vitreous body of pig eye | Solubility Soluble expression [6]: 100%
